Assay results published in US20090105152A1.
Numbered stars: 1 amine (or outer) side, 2 acyl side, 3 side chain; on linkers, the order of the positions; unused ones are H or OH. Square brackets hold non-standard residues; d marks the D form. * marks the point of attachment. Hyp(Bzl) = O-benzyl-trans-4-hydroxyproline, O=C([C@@H]1C[C@@H](OCc2ccccc2)CN1[*:1])[*:2]; Asp(NHPen) = N-omega-pentylasparagine, CCCCCNC(=O)C[C@H](N[*:1])C(=O)[*:2]; Pro(4S-NH2) = N[C@@H]1CN[C@H](C(=O)O)C1; Phe(3-F) = N[C@@H](Cc1cccc(F)c1)C(=O)O; Phe(4-F) = N[C@@H](Cc1ccc(F)cc1)C(=O)O; Phe(2-F) = N[C@@H](Cc1ccccc1F)C(=O)O; Arg(Me) = CNC(=N)NCCC[C@H](N)C(=O)O; Dap(CONH2) = NC(=O)NC[C@H](N)C(=O)O; Hyp = O=C(O)[C@@H]1C[C@@H](O)CN1; dNMeF = CN[C@H](Cc1ccccc1)C(=O)O; NMeS = CN[C@@H](CO)C(=O)O; Aib = CC(C)(N)C(=O)O; Glycolyl = O=C(CO)*; azaGly = NNC(=O)O

target: human OT7T175 (metastin receptor) (human) (UniProt Q969F8); assay: cell-based or functional assay
Sequence (Q969F8 whole entry L364H): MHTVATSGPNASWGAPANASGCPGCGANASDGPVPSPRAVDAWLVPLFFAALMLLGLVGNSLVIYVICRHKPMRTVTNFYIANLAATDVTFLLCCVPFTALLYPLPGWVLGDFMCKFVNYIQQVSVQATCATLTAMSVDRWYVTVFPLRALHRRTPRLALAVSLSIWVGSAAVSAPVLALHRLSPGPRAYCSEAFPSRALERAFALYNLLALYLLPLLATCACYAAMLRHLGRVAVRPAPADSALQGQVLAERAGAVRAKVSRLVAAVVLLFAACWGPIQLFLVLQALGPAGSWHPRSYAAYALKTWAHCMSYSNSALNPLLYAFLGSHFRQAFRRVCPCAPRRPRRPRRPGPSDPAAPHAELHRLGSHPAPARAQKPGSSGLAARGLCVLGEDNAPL

Row | intracellular Ca ion level-increasing activity [specific activity to Metastin (1-54)] (relative to Metastin (1-54)) | Binder
1 | 11.1 | {4‑(bis-(2-pyridylmethyl)aminomethyl)benzoyl}-F[azaGly]L[Arg(Me)]W-NH2 [des(1-5)-4-[Bis-(2-Pyridylmethyl)aminomethyl]benzoyl-[AzaGly7,Arg(Me)9,Trp10]MS10]
2 | 3.4 | Ac-[dY][Aib]NT[Phe(2-F)][azaGly]L[Arg(Me)]W-NH2 (SMILES CNC(=N)NCCC[C@H](NC(=O)[C@H](CC(C)C)NC(=O)NNC(=O)[C@H](Cc1ccccc1F)NC(=O)[C@@H](NC(=O)[C@H](CC(N)=O)NC(=O)C(C)(C)NC(=O)[C@@H](Cc1ccc(O)cc1)NC(C)=O)[C@@H](C)O)C(=O)N[C@@H](Cc1c[nH]c2ccccc12)C(N)=O) [des(1)-Ac-[D-Tyr2,Aib3,Thr5,Phe(2F)6,AzaGly7,Arg(Me)9,Trp10]MS10]
3 | 1 | Ac-[dY][Hyp]N[NMeS]F[azaGly]L[Arg(Me)]W-NH2 (SMILES CNC(=N)NCCC[C@H](NC(=O)[C@H](CC(C)C)NC(=O)NNC(=O)[C@H](Cc1ccccc1)NC(=O)[C@H](CO)N(C)C(=O)[C@H](CC(N)=O)NC(=O)[C@@H]1C[C@@H](O)CN1C(=O)[C@@H](Cc1ccc(O)cc1)NC(C)=O)C(=O)N[C@@H](Cc1c[nH]c2ccccc12)C(N)=O) [des(1)-Ac-[D-Tyr2,Hyp3,NMeSer5,AzaGly7,Arg(Me)9,Trp10]MS10]
4 | 3.4 | Ac-[dY]KNT[Phe(4-F)][azaGly]L[Arg(Me)]W-NH2 (SMILES CNC(=N)NCCC[C@H](NC(=O)[C@H](CC(C)C)NC(=O)NNC(=O)[C@H](Cc1ccc(F)cc1)NC(=O)[C@@H](NC(=O)[C@H](CC(N)=O)NC(=O)[C@H](CCCCN)NC(=O)[C@@H](Cc1ccc(O)cc1)NC(C)=O)[C@@H](C)O)C(=O)N[C@@H](Cc1c[nH]c2ccccc12)C(N)=O) [des(1)-Ac-[D-Tyr2,Lys3,Thr5,Phe(4F)6,AzaGly7,Arg(Me)9,Trp10]MS10]
5 | 0.8 | Ac-[dY][Hyp][Dap(CONH2)]TF[azaGly]L[Arg(Me)]W-NH2 (SMILES CNC(=N)NCCC[C@H](NC(=O)[C@H](CC(C)C)NC(=O)NNC(=O)[C@H](Cc1ccccc1)NC(=O)[C@@H](NC(=O)[C@H](CNC(N)=O)NC(=O)[C@@H]1C[C@@H](O)CN1C(=O)[C@@H](Cc1ccc(O)cc1)NC(C)=O)[C@@H](C)O)C(=O)N[C@@H](Cc1c[nH]c2ccccc12)C(N)=O) [des(1)-Ac-[D-Tyr2,Hyp3,Alb4,Thr5,AzaGly7,Arg(Me)9,Trp10]MS10]
6 | 1.5 | Glycolyl-[dY][Hyp]NTF[azaGly]L[Arg(Me)]W-NH2 (SMILES CNC(=N)NCCC[C@H](NC(=O)[C@H](CC(C)C)NC(=O)NNC(=O)[C@H](Cc1ccccc1)NC(=O)[C@@H](NC(=O)[C@H](CC(N)=O)NC(=O)[C@@H]1C[C@@H](O)CN1C(=O)[C@@H](Cc1ccc(O)cc1)NC(=O)CO)[C@@H](C)O)C(=O)N[C@@H](Cc1c[nH]c2ccccc12)C(N)=O) [des(1)-Glycoloyl-[D-Tyr2,Hyp3,Thr5,AzaGly7,Arg(Me)9,Trp10]MS10]
7 | 3.3 | Ac-[dY][Aib]NT[Phe(3-F)][azaGly]L[Arg(Me)]W-NH2 (SMILES CNC(=N)NCCC[C@H](NC(=O)[C@H](CC(C)C)NC(=O)NNC(=O)[C@H](Cc1cccc(F)c1)NC(=O)[C@@H](NC(=O)[C@H](CC(N)=O)NC(=O)C(C)(C)NC(=O)[C@@H](Cc1ccc(O)cc1)NC(C)=O)[C@@H](C)O)C(=O)N[C@@H](Cc1c[nH]c2ccccc12)C(N)=O) [des(1)-Ac-[D-Tyr2,Aib3,Thr5,Phe(3F)6,AzaGly7,Arg(Me)9,Trp10]MS10]
8 | 1 | Ac-[dY][Hyp(Bzl)]NTF[azaGly]L[Arg(Me)]W-NH2 (SMILES CNC(=N)NCCC[C@H](NC(=O)[C@H](CC(C)C)NC(=O)NNC(=O)[C@H](Cc1ccccc1)NC(=O)[C@@H](NC(=O)[C@H](CC(N)=O)NC(=O)[C@@H]1C[C@@H](OCc2ccccc2)CN1C(=O)[C@@H](Cc1ccc(O)cc1)NC(C)=O)[C@@H](C)O)C(=O)N[C@@H](Cc1c[nH]c2ccccc12)C(N)=O) [des(1)-Ac-[D-Tyr2,Hyp(Bzl)3,Thr5,AzaGly7,Arg(Me)9,Trp10]MS10]
9 | 2.3 | Ac-[dY][Hyp]NT[dF][azaGly]L[Arg(Me)]W-NH2 [des(1)-Ac-[D-Tyr2,Hyp3,Thr5,D-Phe6,AzaGly7,Arg(Me)9,Trp10]MS10]
10 | 2.7 | Ac-[dY]ENT[Phe(4-F)][azaGly]L[Arg(Me)]W-NH2 (SMILES CNC(=N)NCCC[C@H](NC(=O)[C@H](CC(C)C)NC(=O)NNC(=O)[C@H](Cc1ccc(F)cc1)NC(=O)[C@@H](NC(=O)[C@H](CC(N)=O)NC(=O)[C@H](CCC(=O)O)NC(=O)[C@@H](Cc1ccc(O)cc1)NC(C)=O)[C@@H](C)O)C(=O)N[C@@H](Cc1c[nH]c2ccccc12)C(N)=O) [des(1)-Ac-[D-Tyr2,Glu3,Thr5,Phe(4F)6,AzaGly7,Arg(Me)9,Trp10]MS10]
11 | 0.7 | Ac-[dY][dW][Asp(NHPen)]TF[azaGly]L[Arg(Me)]W-NH2 (SMILES CCCCCNC(=O)C[C@H](NC(=O)[C@@H](Cc1c[nH]c2ccccc12)NC(=O)[C@@H](Cc1ccc(O)cc1)NC(C)=O)C(=O)N[C@H](C(=O)N[C@@H](Cc1ccccc1)C(=O)NNC(=O)N[C@@H](CC(C)C)C(=O)N[C@@H](CCCNC(=N)NC)C(=O)N[C@@H](Cc1c[nH]c2ccccc12)C(N)=O)[C@@H](C)O) [des(1)-Ac-[D-Tyr2,D-Trp3,Asp(NHPen)4,Thr5,AzaGly7,Arg(Me)9,Trp10]MS10]
12 | 3.2 | Ac-[dY]GNT[Phe(3-F)][azaGly]L[Arg(Me)]W-NH2 (SMILES CNC(=N)NCCC[C@H](NC(=O)[C@H](CC(C)C)NC(=O)NNC(=O)[C@H](Cc1cccc(F)c1)NC(=O)[C@@H](NC(=O)[C@H](CC(N)=O)NC(=O)CNC(=O)[C@@H](Cc1ccc(O)cc1)NC(C)=O)[C@@H](C)O)C(=O)N[C@@H](Cc1c[nH]c2ccccc12)C(N)=O) [des(1)-Ac-[D-Tyr2,Gly3,Thr5,Phe(3F)6,AzaGly7,Arg(Me)9,Trp10]MS10]
13 | 1.8 | Ac-[dY][dNMeF]NTF[azaGly]L[Arg(Me)]W-NH2 (SMILES CNC(=N)NCCC[C@H](NC(=O)[C@H](CC(C)C)NC(=O)NNC(=O)[C@H](Cc1ccccc1)NC(=O)[C@@H](NC(=O)[C@H](CC(N)=O)NC(=O)[C@@H](Cc1ccccc1)N(C)C(=O)[C@@H](Cc1ccc(O)cc1)NC(C)=O)[C@@H](C)O)C(=O)N[C@@H](Cc1c[nH]c2ccccc12)C(N)=O) [des(1)-Ac-[D-Tyr2,D-NMePhe3,Thr5,AzaGly7,Arg(Me)9,Trp10]MS10]
14 | 2.1 | Ac-[dY][Pro(4S-NH2)]NTF[azaGly]L[Arg(Me)]W-NH2 (SMILES CNC(=N)NCCC[C@H](NC(=O)[C@H](CC(C)C)NC(=O)NNC(=O)[C@H](Cc1ccccc1)NC(=O)[C@@H](NC(=O)[C@H](CC(N)=O)NC(=O)[C@@H]1C[C@H](N)CN1C(=O)[C@@H](Cc1ccc(O)cc1)NC(C)=O)[C@@H](C)O)C(=O)N[C@@H](Cc1c[nH]c2ccccc12)C(N)=O) [des(1)-Ac-[D-Tyr2,Pro(4NH2)3,Thr5,AzaGly7,Arg(Me)9,Trp10]MS10]
15 | 1.4 | Ac-[dY][Hyp]NTF[azaGly]LRW-NH2 (SMILES CC(=O)N[C@H](Cc1ccc(O)cc1)C(=O)N1C[C@H](O)C[C@H]1C(=O)N[C@@H](CC(N)=O)C(=O)N[C@H](C(=O)N[C@@H](Cc1ccccc1)C(=O)NNC(=O)N[C@@H](CC(C)C)C(=O)N[C@@H](CCCNC(=N)N)C(=O)N[C@@H](Cc1c[nH]c2ccccc12)C(N)=O)[C@@H](C)O) [des(1)-Ac-[D-Tyr2,Hyp3,Thr5,AzaGly7,Trp10]MS10]
16 | 1.8 | Ac-[dY]NTF[azaGly]L[Arg(Me)]W-NH2 (SMILES CNC(=N)NCCC[C@H](NC(=O)[C@H](CC(C)C)NC(=O)NNC(=O)[C@H](Cc1ccccc1)NC(=O)[C@@H](NC(=O)[C@H](CC(N)=O)NC(=O)[C@@H](Cc1ccc(O)cc1)NC(C)=O)[C@@H](C)O)C(=O)N[C@@H](Cc1c[nH]c2ccccc12)C(N)=O) [des(1-2)-Ac-[D-Tyr3,Thr5,AzaGly7,Arg(Me)9,Trp10]MS10]
17 | 2.3 | Ac-[dY][Hyp]NT[Phe(4-F)][azaGly]L[Arg(Me)]W-NH2 (SMILES CNC(=N)NCCC[C@H](NC(=O)[C@H](CC(C)C)NC(=O)NNC(=O)[C@H](Cc1ccc(F)cc1)NC(=O)[C@@H](NC(=O)[C@H](CC(N)=O)NC(=O)[C@@H]1C[C@@H](O)CN1C(=O)[C@@H](Cc1ccc(O)cc1)NC(C)=O)[C@@H](C)O)C(=O)N[C@@H](Cc1c[nH]c2ccccc12)C(N)=O) [des(1)-Ac-[D-Tyr2,Hyp3,Thr5,Phe(4F)6,AzaGly7,Arg(Me)9,Trp10]MS10]
18 | 2.9 | Ac-[dY][Aib]NT[Phe(4-F)][azaGly]L[Arg(Me)]W-NH2 (SMILES CNC(=N)NCCC[C@H](NC(=O)[C@H](CC(C)C)NC(=O)NNC(=O)[C@H](Cc1ccc(F)cc1)NC(=O)[C@@H](NC(=O)[C@H](CC(N)=O)NC(=O)C(C)(C)NC(=O)[C@@H](Cc1ccc(O)cc1)NC(C)=O)[C@@H](C)O)C(=O)N[C@@H](Cc1c[nH]c2ccccc12)C(N)=O) [des(1)-Ac-[D-Tyr2,Aib3,Thr5,Phe(4F)6,AzaGly7,Arg(Me)9,Trp10]MS10]
19 | 8.8 | Ac-[dY]GNT[Phe(2-F)][azaGly]L[Arg(Me)]W-NH2 (SMILES CNC(=N)NCCC[C@H](NC(=O)[C@H](CC(C)C)NC(=O)NNC(=O)[C@H](Cc1ccccc1F)NC(=O)[C@@H](NC(=O)[C@H](CC(N)=O)NC(=O)CNC(=O)[C@@H](Cc1ccc(O)cc1)NC(C)=O)[C@@H](C)O)C(=O)N[C@@H](Cc1c[nH]c2ccccc12)C(N)=O) [des(1)-Ac-[D-Tyr2,Gly3,Thr5,Phe(2F)6,AzaGly7,Arg(Me)9,Trp10]MS10]
20 | 2.3 | Ac-[dY]GNT[Phe(4-F)][azaGly]L[Arg(Me)]W-NH2 (SMILES CNC(=N)NCCC[C@H](NC(=O)[C@H](CC(C)C)NC(=O)NNC(=O)[C@H](Cc1ccc(F)cc1)NC(=O)[C@@H](NC(=O)[C@H](CC(N)=O)NC(=O)CNC(=O)[C@@H](Cc1ccc(O)cc1)NC(C)=O)[C@@H](C)O)C(=O)N[C@@H](Cc1c[nH]c2ccccc12)C(N)=O) [des(1)-Ac-[D-Tyr2,Gly3,Thr5,Phe(4F)6,AzaGly7,Arg(Me)9,Trp10]MS10]
